# Assay results taken from the supplement of paper PMC9112550, “Optimization of the antimicrobial peptide Bac7 by deep mutational scanning” (BMC Biology, 2022).
# Tested on: Escherichia coli TOP10
# Experiment: shrunken log2 fold change of peptide-encoding DNA abundance (4.5 h post-induction vs induction); higher = less antimicrobial activity (less host growth inhibition)
# Conditions: time post-induction: 4.5 h; library: site-saturation at positions 5, 18, 19, 20
# 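Note: peptides expressed intracellularly from a pBAD plasmid library in pooled LB shake-flask culture, induced with 0.3% L-arabinose, DNA abundance read by NGS, three biological replicates, DESeq2 with apeglm shrinkage.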
sequence,measurement,value
RRIRTRPPRLPRPRPRPGFAPRP,shrunken log2 fold change,0.33
RRIRFRPPRLPRPRPRPRKKPRP,shrunken log2 fold change,0.14
RRIRDRPPRLPRPRPRPKKSPRP,shrunken log2 fold change,0.102
RRIRIRPPRLPRPRPRPQYKPRP,shrunken log2 fold change,-0.848
RRIRDRPPRLPRPRPRPNTLPRP,shrunken log2 fold change,-0.269
RRIRGRPPRLPRPRPRPETEPRP,shrunken log2 fold change,2.25
RRIRRRPPRLPRPRPRPPWKPRP,shrunken log2 fold change,0.0487
RRIRERPPRLPRPRPRPALIPRP,shrunken log2 fold change,0.129
RRIRKRPPRLPRPRPRPINSPRP,shrunken log2 fold change,-0.395
RRIRWRPPRLPRPRPRPEEMPRP,shrunken log2 fold change,0.013
RRIRDRPPRLPRPRPRPSWLPRP,shrunken log2 fold change,0.339
RRIRCRPPRLPRPRPRPAPPPRP,shrunken log2 fold change,0.743
RRIRDRPPRLPRPRPRPTMIPRP,shrunken log2 fold change,-0.587
RRIRIRPPRLPRPRPRPRPWPRP,shrunken log2 fold change,0.154
RRIRKRPPRLPRPRPRPNFAPRP,shrunken log2 fold change,0.155
RRIRLRPPRLPRPRPRPAFDPRP,shrunken log2 fold change,-0.0259
RRIRRRPPRLPRPRPRPHTIPRP,shrunken log2 fold change,0.141
RRIRQRPPRLPRPRPRPNKFPRP,shrunken log2 fold change,-0.896
RRIRRRPPRLPRPRPRPSLLPRP,shrunken log2 fold change,0.17
RRIRMRPPRLPRPRPRPMQTPRP,shrunken log2 fold change,-0.00202
RRIRPRPPRLPRPRPRPVHPPRP,shrunken log2 fold change,0.127
RRIRNRPPRLPRPRPRPGTGPRP,shrunken log2 fold change,-0.127
RRIRKRPPRLPRPRPRPYSTPRP,shrunken log2 fold change,-0.0551
RRIRKRPPRLPRPRPRPHECPRP,shrunken log2 fold change,0.286
RRIRGRPPRLPRPRPRPFKPPRP,shrunken log2 fold change,-0.0354
RRIRGRPPRLPRPRPRPFHWPRP,shrunken log2 fold change,0.134
RRIRYRPPRLPRPRPRPPTEPRP,shrunken log2 fold change,0.183
RRIRFRPPRLPRPRPRPVITPRP,shrunken log2 fold change,-0.666
RRIRMRPPRLPRPRPRPGRLPRP,shrunken log2 fold change,0.411
RRIRPRPPRLPRPRPRPIAGPRP,shrunken log2 fold change,0.0445
RRIRQRPPRLPRPRPRPVRVPRP,shrunken log2 fold change,0.686
RRIRTRPPRLPRPRPRPELFPRP,shrunken log2 fold change,0.039
RRIRMRPPRLPRPRPRPGTVPRP,shrunken log2 fold change,-0.071
RRIRQRPPRLPRPRPRPQDYPRP,shrunken log2 fold change,-0.685
RRIRSRPPRLPRPRPRPNEIPRP,shrunken log2 fold change,-0.12
RRIRDRPPRLPRPRPRPWHAPRP,shrunken log2 fold change,-0.134
RRIRSRPPRLPRPRPRPFYPPRP,shrunken log2 fold change,-0.259
RRIRHRPPRLPRPRPRPAYMPRP,shrunken log2 fold change,0.0834
RRIRTRPPRLPRPRPRPGHAPRP,shrunken log2 fold change,0.161
RRIRGRPPRLPRPRPRPTCSPRP,shrunken log2 fold change,0.991
RRIRIRPPRLPRPRPRPSLEPRP,shrunken log2 fold change,-0.05
RRIRERPPRLPRPRPRPTTQPRP,shrunken log2 fold change,0.299
RRIRERPPRLPRPRPRPWNDPRP,shrunken log2 fold change,-0.342
RRIRKRPPRLPRPRPRPLMRPRP,shrunken log2 fold change,1.35
RRIRYRPPRLPRPRPRPPTAPRP,shrunken log2 fold change,-0.111
RRIRYRPPRLPRPRPRPAHQPRP,shrunken log2 fold change,0.126
RRIRKRPPRLPRPRPRPVCDPRP,shrunken log2 fold change,0.683
RRIRMRPPRLPRPRPRPPVYPRP,shrunken log2 fold change,0.167
RRIRLRPPRLPRPRPRPFIDPRP,shrunken log2 fold change,-0.439
RRIRTRPPRLPRPRPRPKRLPRP,shrunken log2 fold change,0.2
RRIRWRPPRLPRPRPRPLNQPRP,shrunken log2 fold change,-0.0739
RRIRDRPPRLPRPRPRPNFLPRP,shrunken log2 fold change,-0.277
RRIRLRPPRLPRPRPRPAVQPRP,shrunken log2 fold change,-0.249
RRIRMRPPRLPRPRPRPWIRPRP,shrunken log2 fold change,-0.167
RRIRKRPPRLPRPRPRPWCRPRP,shrunken log2 fold change,-0.189
RRIRERPPRLPRPRPRPYHEPRP,shrunken log2 fold change,-3.17
RRIRTRPPRLPRPRPRPAKHPRP,shrunken log2 fold change,0.0349
RRIRIRPPRLPRPRPRPTGHPRP,shrunken log2 fold change,-0.116
RRIRRRPPRLPRPRPRPTHIPRP,shrunken log2 fold change,0.274
RRIRYRPPRLPRPRPRPWSCPRP,shrunken log2 fold change,-0.171
RRIRTRPPRLPRPRPRPDRLPRP,shrunken log2 fold change,0.0294
RRIRPRPPRLPRPRPRPCCVPRP,shrunken log2 fold change,0.182
RRIRGRPPRLPRPRPRPTVQPRP,shrunken log2 fold change,0.796
RRIRKRPPRLPRPRPRPMATPRP,shrunken log2 fold change,0.329
RRIRYRPPRLPRPRPRPWYQPRP,shrunken log2 fold change,-3.18
RRIRPRPPRLPRPRPRPNVWPRP,shrunken log2 fold change,0.183
RRIRMRPPRLPRPRPRPTALPRP,shrunken log2 fold change,0.33
RRIRLRPPRLPRPRPRPHPMPRP,shrunken log2 fold change,-0.173
RRIRERPPRLPRPRPRPCIGPRP,shrunken log2 fold change,-0.479
RRIRERPPRLPRPRPRPCRGPRP,shrunken log2 fold change,0.0764
RRIRCRPPRLPRPRPRPRWRPRP,shrunken log2 fold change,0.442
RRIRHRPPRLPRPRPRPIFGPRP,shrunken log2 fold change,-0.0177
RRIRERPPRLPRPRPRPNTDPRP,shrunken log2 fold change,-0.554
RRIRGRPPRLPRPRPRPHKCPRP,shrunken log2 fold change,-0.111
RRIRIRPPRLPRPRPRPGASPRP,shrunken log2 fold change,0.0546
RRIRCRPPRLPRPRPRPNTCPRP,shrunken log2 fold change,-0.463
RRIRRRPPRLPRPRPRPCSTPRP,shrunken log2 fold change,0.0875
RRIRLRPPRLPRPRPRPSTTPRP,shrunken log2 fold change,-0.347
RRIRPRPPRLPRPRPRPCEMPRP,shrunken log2 fold change,2.11
RRIRTRPPRLPRPRPRPIPCPRP,shrunken log2 fold change,-0.0839
RRIRFRPPRLPRPRPRPNHEPRP,shrunken log2 fold change,-0.56
RRIRLRPPRLPRPRPRPQSWPRP,shrunken log2 fold change,-0.0792
RRIRPRPPRLPRPRPRPNKPPRP,shrunken log2 fold change,-0.00463
RRIRSRPPRLPRPRPRPDEKPRP,shrunken log2 fold change,-0.0769
RRIRMRPPRLPRPRPRPICHPRP,shrunken log2 fold change,0.0206
RRIRHRPPRLPRPRPRPSDHPRP,shrunken log2 fold change,-0.548
RRIRGRPPRLPRPRPRPWTHPRP,shrunken log2 fold change,-0.0708
RRIRERPPRLPRPRPRPAMPPRP,shrunken log2 fold change,-0.0115
RRIRFRPPRLPRPRPRPALPPRP,shrunken log2 fold change,0.0544
RRIRMRPPRLPRPRPRPHMWPRP,shrunken log2 fold change,0.108
RRIRIRPPRLPRPRPRPPNCPRP,shrunken log2 fold change,-1.06
RRIRRRPPRLPRPRPRPDRGPRP,shrunken log2 fold change,-0.216
RRIRQRPPRLPRPRPRPKFGPRP,shrunken log2 fold change,0.102
RRIRRRPPRLPRPRPRPHEIPRP,shrunken log2 fold change,-0.0745
RRIRHRPPRLPRPRPRPEFEPRP,shrunken log2 fold change,0.0692
RRIRYRPPRLPRPRPRPKNKPRP,shrunken log2 fold change,-0.444
RRIRTRPPRLPRPRPRPREFPRP,shrunken log2 fold change,0.33
RRIRFRPPRLPRPRPRPHQGPRP,shrunken log2 fold change,-0.0419
RRIRYRPPRLPRPRPRPENLPRP,shrunken log2 fold change,0.0949
RRIRTRPPRLPRPRPRPCTVPRP,shrunken log2 fold change,-0.442
RRIRFRPPRLPRPRPRPQDMPRP,shrunken log2 fold change,0.028
RRIRTRPPRLPRPRPRPMLGPRP,shrunken log2 fold change,-0.0672
RRIRCRPPRLPRPRPRPCRKPRP,shrunken log2 fold change,-0.0115
RRIRLRPPRLPRPRPRPQDWPRP,shrunken log2 fold change,-0.104
RRIRLRPPRLPRPRPRPCYKPRP,shrunken log2 fold change,-0.133
RRIRGRPPRLPRPRPRPEHFPRP,shrunken log2 fold change,0.00955
RRIRHRPPRLPRPRPRPCRDPRP,shrunken log2 fold change,0.0154
RRIRGRPPRLPRPRPRPSIDPRP,shrunken log2 fold change,1.84
RRIRWRPPRLPRPRPRPAGGPRP,shrunken log2 fold change,0.379
RRIRCRPPRLPRPRPRPQWWPRP,shrunken log2 fold change,0.433
RRIRVRPPRLPRPRPRPGDAPRP,shrunken log2 fold change,0.0792
RRIRERPPRLPRPRPRPNMMPRP,shrunken log2 fold change,-0.612
RRIRARPPRLPRPRPRPASCPRP,shrunken log2 fold change,0.295
RRIRYRPPRLPRPRPRPFCYPRP,shrunken log2 fold change,-0.432
RRIRNRPPRLPRPRPRPMTKPRP,shrunken log2 fold change,0.116
RRIRHRPPRLPRPRPRPTRAPRP,shrunken log2 fold change,0.348
RRIRRRPPRLPRPRPRPWVKPRP,shrunken log2 fold change,0.0557
RRIRDRPPRLPRPRPRPIWTPRP,shrunken log2 fold change,0.0557
RRIRKRPPRLPRPRPRPFDAPRP,shrunken log2 fold change,0.337
RRIRCRPPRLPRPRPRPCGHPRP,shrunken log2 fold change,-0.101
RRIRVRPPRLPRPRPRPWECPRP,shrunken log2 fold change,-0.00141
RRIRTRPPRLPRPRPRPKDKPRP,shrunken log2 fold change,-0.341
RRIRQRPPRLPRPRPRPAPTPRP,shrunken log2 fold change,0.709
RRIRSRPPRLPRPRPRPQRDPRP,shrunken log2 fold change,-0.117
RRIRHRPPRLPRPRPRPWAPPRP,shrunken log2 fold change,-0.251
